# Source: paper PMC6200327 (The Biochemical journal, 2018)
# B1: mouse RIG-I CARDs (residues 1-189), bacterially expressed (domain or fragment, UniProt Q6Q899 1-189, looked up)
# chain: MTAEQRQNLQAFRDYIKKILDPTYILSYMSSWLEDEEVQYIQAEKNNKGPMEAASLFLQYLLKLQSEGWFQAFLDALYHAGYCGLCEAIESWDFQKIEKLEEHRLLLRRLEPEFKATVDPNDILSELSECLINQECEEIRQIRDTKGRMAGAEKMAECLIRSDKENWPKVLQLALEKDNSKFSELWIVD
# Molecular target: the molecule itself
# Test: crystal structure
protein,measurement,value
B1,stoichiometry N,4
